Test results: article PMC5323315 (Molecular microbiology, 2017)

Molecular target: T1, DnaAΔC with a C-terminal hexa-histidine tag (B. subtilis, UniProt P05648 1-355)
T1 sequence (looked up): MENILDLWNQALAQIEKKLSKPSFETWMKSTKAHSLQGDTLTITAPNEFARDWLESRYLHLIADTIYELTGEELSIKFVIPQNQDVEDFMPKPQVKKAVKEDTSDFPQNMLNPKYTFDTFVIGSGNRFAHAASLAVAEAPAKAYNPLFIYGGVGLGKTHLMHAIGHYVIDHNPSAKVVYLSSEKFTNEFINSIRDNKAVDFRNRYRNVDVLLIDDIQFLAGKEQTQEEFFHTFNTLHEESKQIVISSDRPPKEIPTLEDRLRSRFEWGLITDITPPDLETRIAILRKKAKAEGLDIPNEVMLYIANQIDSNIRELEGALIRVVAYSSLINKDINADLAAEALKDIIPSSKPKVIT
Assay: native gel or EMSA

B1: Rok with a C-terminal hexa-histidine tag (natural protein, B. subtilis, UniProt O34857 1-191, looked up)
chain: MFNEREALRLRLEQLNEAEVKVIREYQIERDKIYAKLRELDRNGSPSEIKKDFRSEKKPDSLPVLAELAAQEIRSYQPQSQQQSVQPQLQSISSLPAGIPDGTTRRRRGTARPGSKAAKLREAAIKTLKRHNAAIKSSELQKEIEKESGLEIPNMTTFMQSLIKMYPEVKKPYRGQYILEGEIESAESANE
B1: binds.
